In patent publication US20110311585A1:

Key:
Test in all cases: cell-based or functional assay
[1] = molecular target: HIV-1 envelope glycoprotein gp160, clone 005 from subject 108069, Q655R mutant (HIV-1)
[2] = molecular target: HIV-1 envelope glycoprotein gp160, clone 005 from subject 108051, Q655R mutant (HIV-1)
[3] = molecular target: HIV-1 envelope glycoprotein gp160, clone 024 from subject 108060, R655Q mutant (HIV-1)
[4] = molecular target: HIV-1 envelope glycoprotein gp160, clone 022 from subject 108060, Q655R mutant (HIV-1)

Substance	IC50, pseudovirus neutralization [1] [µg/mL]	IC50, pseudovirus neutralization [2] [µg/mL]	IC50, pseudovirus neutralization [3] [µg/mL]	IC50, pseudovirus neutralization [4] [µg/mL]	fold increase in neutralization sensitivity against wild-type clone 022 [4] [fold]	fold increase in neutralization sensitivity against the parental virus [1] [fold]
broadly neutralizing monoclonal antibody 4E10	0.044	1.31	6.55	0.156	30 to 35	
broadly neutralizing monoclonal antibody 2F5	0.052	0.343	3.43	0.093	30 to 35	
broadly neutralizing, CD4 blocking monoclonal antibody (MAb) b12	> 20	> 20	> 20	> 20		
enfuvirtide (peptide)	0.011	0.036	0.13	0.004	17	> 17
monoclonal antibody 2G12	> 20	> 20	> 20	> 20		
CD4-IgG (from UniProt P01730 26-205) (Fc fusion)	1.08	5.21	> 20	0.161	> 125	> 20
